Measured values: paper PMC6823436, “Phase separation of Polo-like kinase 4 by autoactivation and clustering drives centriole biogenesis” (Nature Communications, 2019)

Target: the molecule itself
Assay: SEC; Superdex 75 Increase 10/300 GL; 20 mM Tris-HCl pH 7.5, 500 mM NaCl, 5% glycerol, 0.5 mM TCEP; 0.5 mL/min; BSA run for comparison; dimeric state in solution

B1: CPB CP (581–808), cryptic polo-box of Plk4 with the CP mutations (domain or fragment, human, UniProt O00444 581-808, looked up)
chain: GYQNRTLRSITSPLVAHRLKPIRQKTKKAVVSILDSEEVCVELVKEYASQEYVKEVLQISSDGNTITIYYPNGGRGFPLADRPPSPTDNISRYSFDNLPEKYWRKYQYASRFVQLVREKEPKIEYFDRYAKCILMENSPGADFEVWFYDGVKIHKTEDFIQVIEKTGKSYTLKSESEVNSLKEEIKMYMDHANEGHRICLALESIISEEERKTRSAPFFPIIIGRKPG
notes: PDB 6N46 is the His6-tagged form of the same limits; PDB 4N9J is the wild-type apo-CPB; also called CBP CP; source: E. coli Rosetta, purified (HisTrap, SEC, TEV cleavage, HisTrap and MBPTrap, SEC)
Q: Does B1 bind?
A: binds
